From publication PMC7439691, “SRSF1 regulates exosome microRNA enrichment in human cancer cells” come the findings set out here.

Data set [1] concerns the target T1, GST-SRSF1 (human, UniProt Q07955 1-248). The data set can be described thus: competition; EMSA vs IRD-800 miR-1246; did not alter binding; EMSA: 40 mM Tris pH 8.0, 30 mM KCl, 1 mM MgCl2, 0.001% NP40, 1 mM DTT, 5% glycerol, room temperature 40 min, 4% native gel. The conditions noted are these: protein: recombinant; tags: N-terminal GST (pGEX6P); no self-complementarity.

For data set [2], the target named is T1, GST-SRSF1. Nature of the data set: competition; EMSA vs IRD-800 miR-1246; concentration-dependent; dissociation constant only in Fig. 6f; EMSA: 40 mM Tris pH 8.0, 30 mM KCl, 1 mM MgCl2, 0.001% NP40, 1 mM DTT, 5% glycerol, room temperature 40 min, 4% native gel. The conditions noted are these: protein: recombinant; tags: N-terminal GST (pGEX6P); no self-complementarity. (Mobility shift assays separate free from complexed probe on a gel.)

T1 sequence (Q07955 whole entry): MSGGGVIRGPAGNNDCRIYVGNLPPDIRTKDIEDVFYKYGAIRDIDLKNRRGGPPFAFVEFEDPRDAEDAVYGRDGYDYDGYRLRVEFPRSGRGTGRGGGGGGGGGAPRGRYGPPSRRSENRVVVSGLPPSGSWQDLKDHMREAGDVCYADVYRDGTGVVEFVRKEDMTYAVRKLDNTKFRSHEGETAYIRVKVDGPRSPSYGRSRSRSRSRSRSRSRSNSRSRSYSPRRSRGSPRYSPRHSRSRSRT

Regarding UUGGACUAGGACUAGGAU (ssRNA) [Decoy mimic 1 (D1)], the binding result in the data set with GST-SRSF1 [1] is given as “no binding”.

In the case of AGGAAGGAAGGAAGGA (ssRNA) [Decoy mimic 2 (D2)], the binding result with GST-SRSF1 [2] was “binds”.
